Series [1] concerns the molecule itself. Description: SEC-MALS; mHsp60 with mHsp10, pre-incubated with 1 mM ATP for 5 min; Superose-6, ~25 C.
Series [2] deals with the molecule itself. Kind of series: SEC-MALS; mHsp60 (WT or variant) with mHsp10, pre-incubated with 1 mM ATP, 1 mM BeCl2 and 10 mM NaF for 5 min; Superose-6, ~25 C. (In general: SEC sorts molecules by how far they enter the pores of the column.)

The source of these data is PMC7174398 (Nature Communications, 2020).

B1: wild-type human mitochondrial Hsp60 (mHsp60) (natural protein)
chain: GSAKDVKFGADARALMLQGVDLLADAVAVTMGPKGRTVIIEQSWGSPKVTKDGVTVAKSIDLKDKYKNIGAKLVQDVANNTNEEAGDGTTTATVLARSIAKEGFEKISKGANPVEIRRGVMLAVDAVIAELKKQSKPVTTPEEIAQVATISANGDKEIGNIISDAMKKVGRKGVITVKDGKTLNDELEIIEGMKFDRGYISPYFINTSKGQKCEFQDAYVLLSEKKISSIQSIVPALEIANAHRKPLVIIAEDVDGEALSTLVLNRLKVGLQVVAVKAPGFGDNRKNQLKDMAIATGGAVFGEEGLTLNLEDVQPHDLGKVGEVIVTKDDAMLLKGKGDKAQIEKRIQEIIEQLDVTTSEYEKEKLNERLAKLSDGVAVLKVGGTSDVEVNEKKDRVTDALNATRAAVEEGIVLGGGCALLRCIPALDSLTPANEDQKIGIEIIKRTLKIPAMTIAKNAGVEGSLIVEKIMQSSSEVGYDAMAGDFVNMVEKGIIDPTKVVRTALLDAAGVASLLTTAEVVVTEIPKEEKDPGMGAMGGMGGGMGGGMF
notes: residues left at the N-terminus after TEV cleavage and removal of the HisTag; human mitochondrial Hsp60 (mt-cpn60); Oligomeric state depends on nucleotide and concentration: monomers, heptameric single rings, tetradecameric double rings; also called WT mHsp60; mt-cpn60; source: E. coli Rosetta, purified (nickel-agarose, TEV cleavage, anion exchange, oligomerised with ATP, Superdex 200); not …
As usually defined, the stoichiometry N is a count of units in the complex or per binding partner. With B1, the “stoichiometry N” value in series [1] was determined as 7; in series [2], 14.
